Patent US20040235118A1

Key:
[1] = target: Crotalus durissus terrificus venom; test: ELISA, C.d.t. venom-coated plate (5 µg/ml), dilution 1:625
[2] = target: Crotalus durissus terrificus venom; test: ELISA, C.d.t. venom-coated plate, dilution 1:500
[3] = target: Crotalus durissus terrificus venom; test: ELISA, C.d.t. venom-coated plate (5 µg/ml), dilution 1:125
[4] = target: Crotalus durissus terrificus venom; test: ELISA, C.d.t. venom-coated plate, dilution 1:62,500
[5] = target: Crotalus durissus terrificus venom; test: ELISA, C.d.t. venom-coated plate (5 µg/ml), undiluted
[6] = target: Crotalus durissus terrificus venom; test: ELISA, C.d.t. venom-coated plate, dilution 1:3125
[7] = target: Crotalus durissus terrificus venom; test: ELISA, C.d.t. venom-coated plate (5 µg/ml), dilution 1:25
[8] = target: Crotalus durissus terrificus venom; test: ELISA, C.d.t. venom-coated plate (5 µg/ml), dilution 1:5
[9] = target: Crotalus durissus terrificus venom; test: ELISA, C.d.t. venom-coated plate, dilution 1:312,500
[10] = target: Crotalus durissus terrificus venom; test: ELISA, C.d.t. venom-coated plate, dilution 1:2,500
[11] = target: Crotalus durissus terrificus venom; test: ELISA, C.d.t. venom-coated plate, dilution 1:12,500
[12] = target: Crotalus durissus terrificus venom; test: ELISA, C.d.t. venom-coated plate, dilution 1:125
[13] = target: Crotalus durissus terrificus venom; test: ELISA, C.d.t. venom-coated plate, dilution 1:25
[14] = target: Crotalus durissus terrificus venom; test: ELISA, C.d.t. venom-coated plate, dilution 1:5
[15] = target: Crotalus durissus terrificus venom; test: ELISA, C.d.t. venom-coated plate, dilution 1:625
[16] = target: Crotalus durissus terrificus venom; test: ELISA, C.d.t. venom-coated plate (5 µg/ml), dilution 1:3125

**Q.** With “preimmune IgY (PEG preparation from eggs of unimmunized hens or purchased eggs) (antibody)” as the substance, how does the absorbance (ELISA) [1] read?
**A.** The absorbance (ELISA) was 0 OD.

**Q.** And the absorbance (412 nm filter) [2]?
**A.** Its absorbance (412 nm filter) is 0.005 OD.

**Q.** What about the absorbance (ELISA) [3] of the same substance?
**A.** Its absorbance (ELISA) is 0.003 OD.

**Q.** And the absorbance (412 nm filter) [4]?
**A.** Its absorbance (412 nm filter) is 0.001 OD.

**Q.** And the absorbance (ELISA) [5]?
**A.** Its absorbance (ELISA) is 0.003 OD.

**Q.** What about the absorbance (ELISA) [6] of the same substance?
**A.** The absorbance (ELISA) was less than 0 OD.

**Q.** What about the absorbance (ELISA) [7] of the same substance?
**A.** Its absorbance (ELISA) is 0 OD.

**Q.** And the absorbance (ELISA) [8]?
**A.** Its absorbance (ELISA) is less than 0 OD.

**Q.** And the absorbance (412 nm filter) [9]?
**A.** The absorbance (412 nm filter) was 0.01 OD.

**Q.** And the absorbance (412 nm filter) [10]?
**A.** The absorbance (412 nm filter) was 0.004 OD.

**Q.** And the absorbance (412 nm filter) [11]?
**A.** Its absorbance (412 nm filter) is 0.001 OD.

**Q.** What about the absorbance (ELISA) [12] of the same substance?
**A.** Its absorbance (ELISA) is less than 0 OD.

**Q.** And the absorbance (ELISA) [13]?
**A.** Its absorbance (ELISA) is 0.016 OD.

**Q.** What about the absorbance (ELISA) [14] of the same substance?
**A.** Its absorbance (ELISA) is less than 0 OD.

**Q.** And the absorbance (ELISA) [15]?
**A.** Its absorbance (ELISA) is less than 0 OD.

**Q.** And the absorbance (ELISA) [16]?
**A.** The absorbance (ELISA) was 0.002 OD.
